To fix the notation:
B1: D65A (designed binder)
chain: MTLQELLREEALRRAEAEAFRYALELLAEKFPEQKEYLLDLAEEIESQIRSLSGVDVEDVRKFLAKEWAWVKELLAEHPAELAEVEAARAARLAELRAEVEAKVAA
B2: W70C (designed binder)
chain: MTLQELLREEALRRAEAEAFRYALELLAEKFPEQKEYLLDLAEEIESQIRSLSGVDVEDVRKFLDKEWACVKELLAEHPAELAEVEAARAARLAELRAEVEAKVAA
B3: F63M (designed binder)
chain: MTLQELLREEALRRAEAEAFRYALELLAEKFPEQKEYLLDLAEEIESQIRSLSGVDVEDVRKMLDKEWAWVKELLAEHPAELAEVEAARAARLAELRAEVEAKVAA
B4: R89E (designed binder)
chain: MTLQELLREEALRRAEAEAFRYALELLAEKFPEQKEYLLDLAEEIESQIRSLSGVDVEDVRKFLDKEWAWVKELLAEHPAELAEVEAAEAARLAELRAEVEAKVAA
B5: E16Y (designed binder)
chain: MTLQELLREEALRRAYAEAFRYALELLAEKFPEQKEYLLDLAEEIESQIRSLSGVDVEDVRKFLDKEWAWVKELLAEHPAELAEVEAARAARLAELRAEVEAKVAA
B6: V57A (designed binder)
chain: MTLQELLREEALRRAEAEAFRYALELLAEKFPEQKEYLLDLAEEIESQIRSLSGVDAEDVRKFLDKEWAWVKELLAEHPAELAEVEAARAARLAELRAEVEAKVAA
B7: P32A (designed binder)
chain: MTLQELLREEALRRAEAEAFRYALELLAEKFAEQKEYLLDLAEEIESQIRSLSGVDVEDVRKFLDKEWAWVKELLAEHPAELAEVEAARAARLAELRAEVEAKVAA
B8: L27H (designed binder)
chain: MTLQELLREEALRRAEAEAFRYALELHAEKFPEQKEYLLDLAEEIESQIRSLSGVDVEDVRKFLDKEWAWVKELLAEHPAELAEVEAARAARLAELRAEVEAKVAA
B9: L75Q (designed binder)
chain: MTLQELLREEALRRAEAEAFRYALELLAEKFPEQKEYLLDLAEEIESQIRSLSGVDVEDVRKFLDKEWAWVKELQAEHPAELAEVEAARAARLAELRAEVEAKVAA
B10: M1K (designed binder)
chain: KTLQELLREEALRRAEAEAFRYALELLAEKFPEQKEYLLDLAEEIESQIRSLSGVDVEDVRKFLDKEWAWVKELLAEHPAELAEVEAARAARLAELRAEVEAKVAA
B11: L74C (designed binder)
chain: MTLQELLREEALRRAEAEAFRYALELLAEKFPEQKEYLLDLAEEIESQIRSLSGVDVEDVRKFLDKEWAWVKECLAEHPAELAEVEAARAARLAELRAEVEAKVAA
B12: L74N (designed binder)
chain: MTLQELLREEALRRAEAEAFRYALELLAEKFPEQKEYLLDLAEEIESQIRSLSGVDVEDVRKFLDKEWAWVKENLAEHPAELAEVEAARAARLAELRAEVEAKVAA
B13: L39R (designed binder)
chain: MTLQELLREEALRRAEAEAFRYALELLAEKFPEQKEYLRDLAEEIESQIRSLSGVDVEDVRKFLDKEWAWVKELLAEHPAELAEVEAARAARLAELRAEVEAKVAA
B14: A80I (designed binder)
chain: MTLQELLREEALRRAEAEAFRYALELLAEKFPEQKEYLLDLAEEIESQIRSLSGVDVEDVRKFLDKEWAWVKELLAEHPIELAEVEAARAARLAELRAEVEAKVAA
B15: D59E (designed binder)
chain: MTLQELLREEALRRAEAEAFRYALELLAEKFPEQKEYLLDLAEEIESQIRSLSGVDVEEVRKFLDKEWAWVKELLAEHPAELAEVEAARAARLAELRAEVEAKVAA
B16: E10S (designed binder)
chain: MTLQELLRESALRRAEAEAFRYALELLAEKFPEQKEYLLDLAEEIESQIRSLSGVDVEDVRKFLDKEWAWVKELLAEHPAELAEVEAARAARLAELRAEVEAKVAA
B17: R61F (designed binder)
chain: MTLQELLREEALRRAEAEAFRYALELLAEKFPEQKEYLLDLAEEIESQIRSLSGVDVEDVFKFLDKEWAWVKELLAEHPAELAEVEAARAARLAELRAEVEAKVAA
B18: A69D (designed binder)
chain: MTLQELLREEALRRAEAEAFRYALELLAEKFPEQKEYLLDLAEEIESQIRSLSGVDVEDVRKFLDKEWDWVKELLAEHPAELAEVEAARAARLAELRAEVEAKVAA
B19: V60G (designed binder)
chain: MTLQELLREEALRRAEAEAFRYALELLAEKFPEQKEYLLDLAEEIESQIRSLSGVDVEDGRKFLDKEWAWVKELLAEHPAELAEVEAARAARLAELRAEVEAKVAA
B20: L27N (designed binder)
chain: MTLQELLREEALRRAEAEAFRYALELNAEKFPEQKEYLLDLAEEIESQIRSLSGVDVEDVRKFLDKEWAWVKELLAEHPAELAEVEAARAARLAELRAEVEAKVAA
B21: E44N (designed binder)
chain: MTLQELLREEALRRAEAEAFRYALELLAEKFPEQKEYLLDLAENIESQIRSLSGVDVEDVRKFLDKEWAWVKELLAEHPAELAEVEAARAARLAELRAEVEAKVAA
B22: E67H (designed binder)
chain: MTLQELLREEALRRAEAEAFRYALELLAEKFPEQKEYLLDLAEEIESQIRSLSGVDVEDVRKFLDKHWAWVKELLAEHPAELAEVEAARAARLAELRAEVEAKVAA
B23: W68K (designed binder)
chain: MTLQELLREEALRRAEAEAFRYALELLAEKFPEQKEYLLDLAEEIESQIRSLSGVDVEDVRKFLDKEKAWVKELLAEHPAELAEVEAARAARLAELRAEVEAKVAA
B24: A23E (designed binder)
chain: MTLQELLREEALRRAEAEAFRYELELLAEKFPEQKEYLLDLAEEIESQIRSLSGVDVEDVRKFLDKEWAWVKELLAEHPAELAEVEAARAARLAELRAEVEAKVAA
B25: L75K (designed binder)
chain: MTLQELLREEALRRAEAEAFRYALELLAEKFPEQKEYLLDLAEEIESQIRSLSGVDVEDVRKFLDKEWAWVKELKAEHPAELAEVEAARAARLAELRAEVEAKVAA

The source of these data is article PMC12416549 (2024).

In this experiment the target is T1, TNFR1 (Homo sapiens, UniProt P19438).
T1 chain: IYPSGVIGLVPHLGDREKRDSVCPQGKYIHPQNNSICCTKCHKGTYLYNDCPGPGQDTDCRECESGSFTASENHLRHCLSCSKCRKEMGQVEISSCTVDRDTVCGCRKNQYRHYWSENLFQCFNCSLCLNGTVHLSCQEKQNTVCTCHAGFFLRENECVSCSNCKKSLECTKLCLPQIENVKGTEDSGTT
Briefly: yeast display SC50.
As to B1, the “apparent Kd (screen)” value was found to be 0.653 nM.
The value for B2 was 2.73 nM; that for B3 was 1.16 nM; that for B4 was 0.956 nM.
The value for B5 was 0.446 nM.
The value for B6 was 0.49 nM; that for B7 was 0.653 nM.
Consider B8, for which the “apparent Kd (screen)” value amounted to 0.869 nM.
The same measure for B9: 0.79 nM.
The value for B10 was 0.49 nM.
The same measure for B11: 1.4 nM; for B12: 1.27 nM; for B13: 1.4 nM.
Consider B14, for which the “apparent Kd (screen)” value amounted to 0.593 nM.
The value for B15 was 0.539 nM; that for B16 was 2.25 nM; that for B17 was 1.05 nM.
The same measure for B18: 0.653 nM; for B19: 1.54 nM; for B20: 0.49 nM.
As for B21, the “apparent Kd (screen)” value was found to be 24.4 nM.
The value for B22 was 0.335 nM; that for B23 was 12.5 nM.
The same measure for B24: 0.49 nM; for B25: 0.593 nM.
